Laboratory results taken from patent publication US20260167737A1 (BIGHAT BIOSCIENCES, published 2026).
Changes are numbered by the printed parent chain. Each block holds one molecule with its values, some of them ahead of it.

How the values were obtained:
CDH17 on SNU16 cells = CDH17 on SNU16 cells (UniProt Q12864)
CDH17 [1] = biological target: T1, CDH17 (UniProt Q12864 23-787, limits assumed)
T1 construct: also called cadherin 17
T1 sequence (looked up): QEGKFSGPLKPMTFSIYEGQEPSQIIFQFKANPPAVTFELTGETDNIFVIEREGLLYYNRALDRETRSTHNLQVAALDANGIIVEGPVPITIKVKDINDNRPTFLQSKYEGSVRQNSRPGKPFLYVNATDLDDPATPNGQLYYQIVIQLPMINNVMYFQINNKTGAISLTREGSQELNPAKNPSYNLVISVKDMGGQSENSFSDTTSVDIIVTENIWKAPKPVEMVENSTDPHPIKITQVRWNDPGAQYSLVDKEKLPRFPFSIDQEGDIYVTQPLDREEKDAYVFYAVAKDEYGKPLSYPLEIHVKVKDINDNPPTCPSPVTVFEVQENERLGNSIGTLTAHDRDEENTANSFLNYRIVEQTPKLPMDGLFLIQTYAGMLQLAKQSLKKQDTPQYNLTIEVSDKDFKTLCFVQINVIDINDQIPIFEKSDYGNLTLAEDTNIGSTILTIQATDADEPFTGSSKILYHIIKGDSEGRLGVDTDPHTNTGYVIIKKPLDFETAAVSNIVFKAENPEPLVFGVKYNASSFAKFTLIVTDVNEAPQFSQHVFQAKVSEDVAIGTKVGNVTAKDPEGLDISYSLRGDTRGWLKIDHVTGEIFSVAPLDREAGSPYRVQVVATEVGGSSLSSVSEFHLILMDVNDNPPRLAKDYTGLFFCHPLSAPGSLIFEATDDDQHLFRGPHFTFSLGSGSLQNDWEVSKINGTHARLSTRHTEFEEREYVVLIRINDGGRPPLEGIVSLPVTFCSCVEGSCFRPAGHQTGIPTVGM

CDH17 [2] = biological target: T1, CDH17; assay: method not stated; KD at pH 7.4

Molecule: isotype vedotin (Fc fusion)
cytotoxicity IC50 of the negative control (no asterisk: isotype control vedotin ADC), SNU16 (gastric) cells (CDH17 on SNU16 cells): > 100 nM
cytotoxicity IC50 of the negative control (no asterisk: isotype control vedotin ADC), AsPC1 (PDAC) cells (CDH17 [1]): > 100 nM
cytotoxicity IC50 of the negative control (no asterisk: isotype control vedotin ADC), CAPAN2 (PDAC) cells (ABC <LLOD) (CDH17 [1]): > 100 nM
cytotoxicity IC50 of the negative control (no asterisk: isotype control vedotin ADC), LoVo (CRC) cells (ABC <LLOD) (CDH17 [1]): > 100 nM
cytotoxicity IC50 of the negative control (no asterisk: isotype control vedotin ADC), NCI-H508 (CRC) cells (CDH17 [1]): 0.301 nM
cytotoxicity IC50 of the negative control (no asterisk: isotype control vedotin ADC), SW403 (CRC) cells (CDH17 [1]): > 100 nM
cytotoxicity IC50 of the negative control (no asterisk: isotype control vedotin ADC), SW837 (CRC) cells (ABC <LLOD) (CDH17 [1]): > 100 nM

Kd (CDH17 [2]): 27.2 nM
B1: CDH17_vhh_0001 (VHH)
VHH: QVQLQESGGGLVQPGGSTRLSCVSSRTFSYYDMGWFRQAPGKEREFVALLSWNGENAEYSDSVMGRFTVSRGNTQNSVNLQMNNLKPEDTGIYYCAVTHGGARSVRSWGQGTQVTVSS
notes: also called parental VHH-0001

Kd (CDH17 [2]): 2.93 nM
B2: CDH17_vhh_0622 (VHH)
VHH: B1 VHH with R26I, N53R, H99Y

Kd (CDH17 [2]): 5.14 nM
B3: CDH17_vhh_0262 (VHH)
VHH: B1 VHH with N53R, E55N, S62T, H99Y

Kd (CDH17 [2]): 2.15 nM
B4: CDH17_vhh_0945 (VHH)
VHH: B1 VHH with N53R, E55N, M64H, H99Y, G101V, S107L

Kd (CDH17 [2]): 5.47 nM
B5: CDH17_vhh_0395 (VHH)
VHH: B1 VHH with N53R, E55N, D61E, H99Y

Kd (CDH17 [2]): 5.43 nM
B6: CDH17_vhh_0688 (VHH)
VHH: B1 VHH with N53R, E55N, S62D, H99Y, G101N

Kd (CDH17 [2]): 3.79 nM
B7: CDH17_vhh_0674 (VHH)
VHH: B1 VHH with N53R, E55N, S62T, H99Y, S107K

Kd (CDH17 [2]): 2.61 nM
B8: CDH17_vhh_0952 (VHH)
VHH: B1 VHH with N53R, E55N, S62D, H99Y, G101N, S107L

Kd (CDH17 [2]): 3.81 nM
B9: CDH17_vhh_0950 (VHH)
VHH: B1 VHH with N53R, E55N, A57S, M64H, H99Y, S107L

Kd (CDH17 [2]): 3.12 nM
B10: CDH17_vhh_0653 (VHH)
VHH: B1 VHH with N53R, E55I, S62T, T68V, H99Y, G101V

Kd (CDH17 [2]): 2.18 nM
B11: CDH17_vhh_0648 (VHH)
VHH: B1 VHH with N53R, E55N, T68V, H99Y, G101V, R103K

Kd (CDH17 [2]): 4.36 nM
B12: CDH17_vhh_0676 (VHH)
VHH: B1 VHH with N53R, E55N, S62D, H99Y, G101T

Kd (CDH17 [2]): 4.94 nM
B13: CDH17_vhh_0173 (VHH)
VHH: B1 VHH with N53R, E55N, S60R, H99Y

Kd (CDH17 [2]): 4.35 nM
B14: CDH17_vhh_0274 (VHH)
VHH: B1 VHH with N53R, E55N, T68V, H99Y, R103K

Kd (CDH17 [2]): 2.63 nM
B15: CDH17_vhh_0646 (VHH)
VHH: B1 VHH with N53R, E55N, S60R, H99Y, S107L

Kd (CDH17 [2]): 2.01 nM
B16: CDH17_vhh_0949 (VHH)
VHH: B1 VHH with N53R, E55N, S62D, H99Y, G101K, S107L

Kd (CDH17 [2]): 3.21 nM
B17: CDH17_vhh_0591 (VHH)
VHH: B1 VHH with N53R, E55N, H99Y, S107L

Kd (CDH17 [2]): 3.94 nM
B18: CDH17_vhh_0263 (VHH)
VHH: B1 VHH with N53R, E55N, N56Y, T68V, H99Y

Kd (CDH17 [2]): 5.01 nM
B19: CDH17_vhh_0587 (VHH)
VHH: B1 VHH with N53R, E55I, H99Y

Kd (CDH17 [2]): 3.32 nM
B20: CDH17_vhh_0644 (VHH)
VHH: B1 VHH with N53R, E55N, S60R, T68V, H99Y, G101V

Kd (CDH17 [2]): 2.82 nM
B21: CDH17_vhh_0271 (VHH)
VHH: B1 VHH with N53R, E55N, T68V, H99Y, G101V

Kd (CDH17 [2]): 4.9 nM
B22: CDH17_vhh_0632 (VHH)
VHH: B1 VHH with N53R, N56R, H99Y

Kd (CDH17 [2]): 7.59 nM
B23: CDH17_vhh_0156 (BHB156) (VHH)
VHH: B1 VHH with N53R, E55N, H99Y

Kd (CDH17 [2]): 1.81 nM
B24: CDH17_vhh_0951 (VHH)
VHH: B1 VHH with N53R, E55N, S62D, H99Y, G101T, S107L

Kd (CDH17 [2]): 3.94 nM
B25: CDH17_vhh_0948 (VHH)
VHH: B1 VHH with N53R, E55N, S62D, M64H, H99Y, S107L

Kd (CDH17 [2]): 2.45 nM
B26: CDH17_vhh_0650 (VHH)
VHH: B1 VHH with N53R, E55N, S60R, H99Y, R103K, S107L

Kd (CDH17 [2]): 2.65 nM
B27: CDH17_vhh_0677 (VHH)
VHH: B1 VHH with N53R, E55N, S62D, H99Y, G101K

Kd (CDH17 [2]): 4.83 nM
B28: CDH17_vhh_0689 (VHH)
VHH: B1 VHH with N53R, E55N, S62F, H99Y, S107L

Kd (CDH17 [2]): 3.71 nM
B29: CDH17_vhh_0651 (VHH)
VHH: B1 VHH with A39Y, N53R, E55N, T68V, H99L, G101V

Kd (CDH17 [2]): 3.76 nM
B30: CDH17_vhh_0672 (VHH)
VHH: B1 VHH with N53R, E55N, M64H, H99Y, S107L

Kd (CDH17 [2]): 5.08 nM
B31: CDH17_vhh_0267 (VHH)
VHH: B1 VHH with Q38Y, N53R, E55N, S60A, H99Y

Kd (CDH17 [2]): 4.85 nM
B32: CDH17_vhh_0613 (VHH)
VHH: B1 VHH with N53R, H99Y

Kd (CDH17 [2]): 3.3 nM
B33: CDH17_vhh_0652 (VHH)
VHH: B1 VHH with A39Y, N53R, E55N, N56Y, T68V, H99Y, S107L

Kd (CDH17 [2]): 4.96 nM
B34: CDH17_vhh_0629 (VHH)
VHH: B1 VHH with S51D, N53R, H99Y

Kd (CDH17 [2]): 2.04 nM
B35: CDH17_vhh_0946 (VHH)
VHH: B1 VHH with N53R, E55N, S62F, H99Y, G101V, S107L

Kd (CDH17 [2]): 5.17 nM
B36: CDH17_vhh_0645 (VHH)
VHH: B1 VHH with A39Y, N53R, E55N, N56Y, T68V, H99Y

Kd (CDH17 [2]): 3.89 nM
B37: CDH17_vhh_0675 (VHH)
VHH: B1 VHH with N53R, E55N, S62T, H99Y, S107A

Kd (CDH17 [2]): 4.85 nM
B38: CDH17_vhh_0372 (VHH)
VHH: B1 VHH with S51D, N53R, E55N, H99Y

Kd (CDH17 [2]): 4.53 nM
B39: CDH17_vhh_0670 (VHH)
VHH: B1 VHH with S51D, N53R, E55N, N56Y, H99Y

Kd (CDH17 [2]): 4.75 nM
B40: CDH17_vhh_0259 (VHH)
VHH: B1 VHH with A39Y, N53R, E55N, H99Y
